According to patent US20240117012A1 (KAO, published 2024):
Where two headings read alike, the source gives them in different places.

B1: His-tagged CoVHH-N1 (VHH)
VHH: EVQLVESGGAVVQPGGSLRLSCEASGFPFTKFWMYWVRRAPGKGLEWVAFIDTTGTITNYASSVKGRFTISRDDARNMVYLQMNDLRPEDTAIYYCATGPPGSTWVVDFHSWGQGTQVTVSS
notes: also called CoVHH-N1 (His-tagged)
B2: His-tagged CoVHH-N2 (VHH)
VHH: EVQLVESGGGSVQAGGSLTLSCAASGFTFDDHAVGWFRQAPGKGLEWVSAISGDGYTTVYADSVKGRFTISRDNAKKTVYLQMNSLKAEDTAVYYCNAFRTDIVREYWGQGTQVTVSS
notes: also called CoVHH-N2 (His-tagged)

Legend:
[1] = molecular target: T1, SARS-CoV-2 Nucleocapsid-Fc fusion protein (SARS-CoV-2, UniProt P0DTC9 1-419)
[2] = molecular target: T1, SARS-CoV-2 Nucleocapsid-Fc fusion …; test: CoVHH-N1
[3] = molecular target: T1, SARS-CoV-2 Nucleocapsid-Fc fusion …; test: CoVHH-N2

Binder	Kd [1] [nM]	koff [2] [s⁻¹]	kon [2] [M⁻¹ s⁻¹]	Kd [3] [nM]	koff [3] [s⁻¹]	kon [3] [M⁻¹ s⁻¹]
B1	0.564	0.0017	3.02e+06	–	–	–
B2	–	–	–	2.09	0.0009	430000
